Here are results for 30 sequences from the nanobody polyreactivity screen of Harvey et al. (2022).

The series can be described thus: yeast display, Sf9 membrane polyspecificity reagent, FACS + sequencing; frameworks hold sequencing errors. In outline:
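Nanobodies came from a synthetic yeast display library in Saccharomyces cerevisiae BJ5465, induced with galactose for 36–48 hours and stained for 1 hour at 4 °C with 10% biotinylated, detergent-solubilized Sf9 membrane reagent. Cells were enriched on streptavidin microbeads and then FACS-sorted, with low and high (top ~1%) gates set on anti-HA fluorescence for expression and streptavidin fluorescence for reagent binding. Each polyreactivity label reflects the gate a clone came from. Genes were amplified by colony PCR, sequenced by MiSeq 2 × 250 and filtered by CDR length.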
As to “QVQIVESGGVLVQAGGSIRLSCDASGSLFTIYAMGCYRQAPGKERELVAAITWSGGSTYYADSVKGRYTISRDNAKNTVNLQMNSLKPEDTAVYYCAADAYTGDIPYWWPWNNEYDYWGQGTQVTLSS”, the “polyreactivity (PSR sort gate)” value is given as “low polyreactivity”.

Regarding “QVQIVESGRGLVQAGGSLRLSCAPSGFNIPTNGMGWYRQATGKEREFVASITWRGGGTYYAESVKGRFTISRDNAKNTVFLQMNSLKPEDTAVYYCAAGRSWSSYWKYDYWGLGTQVTVSS”, the “polyreactivity (PSR sort gate)” value is given as “low polyreactivity”.

Regarding “QVQIVESGRGLVQAGGSLRVSCAASGRTFTYNAMGWYRQAPGKERELVAAINGDGGSTYYADSVKVRFTISRDNAKNTVYLQMNSLKPEDTAVYYCNRPRIYRYGYWGQGTQVTVSS”, the “polyreactivity (PSR sort gate)” value was “high polyreactivity”.

For the sequence “QVQIVESRGGLVQAGGSLRLSCSASGRTFTYYAMGWYRQAPGKERELVASITSGGSTYADSVKGRFTISRDNAMNTVYLQMNSLKPEDTAVYYCAARAWGYRYKYYWGQGTLVTVSS”, the “polyreactivity (PSR sort gate)” value is listed as “high polyreactivity”.

“QVQIVESVGCLVQARGSLRLSSAASGFILVINAMGWYRQAPGKERELVAAINGGDITNYADSVKGRFTFSRDNAKNNVYLQMNSLKPEDTAVYYCSADGEDSLWTGYDYDYWGLGTQVTVSS”: the “polyreactivity (PSR sort gate)” value is “low polyreactivity”.

With “QVQIVESVGGLVQAGGSLRLSCAASGSTFSGYAKGWYRQAPGKERELVAAISWRGVRTYYADSVKGRFTISRDNAKNTVYLQMNSLKPEDTAVYYCAAVRYIPKEFYWGQGTQVTVSS”, the “polyreactivity (PSR sort gate)” value is reported as “high polyreactivity”.

As for “QVQIVESWGGLVQAGGSLRVSCATSGGIFRFNAMGSYRHAPGKERELVAAITSSVGSTYYADSVKGRFTFSRDNAKNTVDLQLNSLKPEDTAVDDCAAVITRVAIVFSTEYDYWGQGTQVTVSS”, the “polyreactivity (PSR sort gate)” value is “low polyreactivity”.

Consider “QVQIVETGGVLVQAGGSLRLSFADAGLTIYIYAMGWYRQAPGKETELFPAISWIGDSTYYADSVKGLFTISRDNAKNTVYLQLNSLKPEDTAVYYCAADSWRYVAEGLWREYDYWGQGTQVTVSS”, for which the “polyreactivity (PSR sort gate)” value is “low polyreactivity”.

In the case of “QVQLAESGGGLVQAGGSLRLSCAASGIIFVYNAMGWYIKAPGKERELVAVISFIGDSTYYADSVKGRFTISRDNAKNTVYLQMNSLKPEDTAVYYCAADYYMPYWFFVGYDYWGQGTQVTVSS”, the “polyreactivity (PSR sort gate)” value was “low polyreactivity”.

“QVQLAESGGGLVQAGGSLRLSCAASGRTFSQYGMGWYRQAPGKERELVARIRRSGGSTYYADSVKGRFTISRDNAKNTVYLQMNSLKPEDTAVYYCAARYYWFGQYQYNYWGQGTQVTVSS”: the “polyreactivity (PSR sort gate)” value is reported as “high polyreactivity”.

Take “QVQLAESGGGLVQAGGSLRLSCAASGRTFSQYGMGWYRQAPGKERELVARIRRSGGSTYYADSVKGRFTISRDNAKNTVYLQMNSLKPEDTAVYYCNADGQPYTRYGYWGQGTRVTVSS”: the “polyreactivity (PSR sort gate)” value is recorded as “high polyreactivity”.

Take “QVQLAESGGGLVQAGGSLRLSCGASGSTFVAYALGWYRQAPGKEREFVAAISRSGGSTHYADSVKGRFTISRDNAKNTVYLQMNRLNPEDTAVYYCAARVYGYGGRTYEYWGQGTQVTVSS”: the “polyreactivity (PSR sort gate)” value is on record as “high polyreactivity”.

For the sequence “QVQLDESGGGLVQAGGSHRLSCAASGYIFGYYAMGWSRQAPGKERELVAAISKSGTDTYYADSVKGRFTISRDYAKNTVFLQMNSLKPEDTAVYYCNALLRGYSYGYDYWGQGTQVTVSS”, the “polyreactivity (PSR sort gate)” value was “high polyreactivity”.

“QVQLEDSGGGLVQAGGSLRLICAASGSILNYKAMGWYRHAPGKERELVAGIRSSGGSTYYADSVKGRFTISRDNAKNTVYLKMNSLKPEDTAVYDWAKRTYWRRGWGFDFWGQGTQVTVSS”: the “polyreactivity (PSR sort gate)” value is “high polyreactivity”.

In the case of “QVQLEDSGGGLVQAGGSLRLSCAASGFIFRGYGMGWYRQAPGKERELLASITTGGRTNYADSVKGRFTISRDNAKNTVYLQMNCLKPEDTAVYYCAATYYLRLRRPYWQGFNYWGQGTQVTVSS”, the “polyreactivity (PSR sort gate)” value was “high polyreactivity”.

Take “QVQLEDSGGGLVQAGGSLRLSCAASGRTFVFKAMGWYRPAPGKERELVAAITISGGSTYYADSVKGRFTISRDNAKNTVYLQMNSLKPEDTAVYSCNADSKIEVFSYIYDYWGQGTQVTVSS”: the “polyreactivity (PSR sort gate)” value was “high polyreactivity”.

“QVQLEDSGGGLVQAGGSLRLSCAASGSIFRRNFMGWNRQAPGKERELVAAISWSGDRTYYADSVKGRFTISRDNAKNTVYLQMNSLKPEDTAVYYCNAVYWPYRYDYWGQGTQVTVSS”: the “polyreactivity (PSR sort gate)” value is given as “high polyreactivity”.

For “QVQLEDSGGGVVQAGGSLRLSCAASGSIYYPYAMGWNRQAPGKERELVARITSGGSTHYADSVKGRFTISRDNAKNTVYLQMNSLKPEETAVYYCNADYWFVESDYWGKGTQVTVSS”, the “polyreactivity (PSR sort gate)” value is “low polyreactivity”.

For the sequence “QVQLEESAGGIVQAGGSLRLSCAGSGSTVSVYAMGWYRQAPGKEWELVARIRWSSGITYYADSVNGRFTISRDNAKNTVYLQLNSVKPEDTAVYYCNAQYRRAYLWFLYDYWGQGTQVTVSS”, the “polyreactivity (PSR sort gate)” value is “high polyreactivity”.

Consider “QVQLEESAGGLVQAGGSLRLSCAASGSIFFFYAKGRYREAPGKERELVAAITGSGGSTYYADSVKGRFTISRVNAKNTVYLQMNSLKPEDTAVYDCAFRTSRQVYSYAGYESWGQGTHVTVSS”, for which the “polyreactivity (PSR sort gate)” value is “low polyreactivity”.

In the case of “QVQLEESCGGLVQAGGRLRLSCAASGSIFRFNVMGWYRHAPGKERDLVAAITRGDSTNYADSVKGRFTISRDNAKITVYLQMNILIQDDSAVYYCAAGYYYYLRDHDYWGQGTQVTVSS”, the “polyreactivity (PSR sort gate)” value is “low polyreactivity”.

For “QVQLEESGAGLLQAGGSIRLSCAASGRTFWYYTMGWYRQAPGKEREVVAAISSGGRTNYADSVKGRFTISRDNAKNTVYLQMNSLKPEDTAVYDCAALYAKYYYRYDYWGQGTQVTVSS”, the “polyreactivity (PSR sort gate)” value is reported as “high polyreactivity”.

Consider “QVQLEESGGCLVQAGGRIRLSCAASGLTFHRYAMGWYRQAPGKERELVAAINYSGGRTYYADSVKGRFTISRDNATNNVYLQMNSLKPEDTAVYYCAAPSASGYYWGQGNQVTVSS”, for which the “polyreactivity (PSR sort gate)” value was “high polyreactivity”.

Take “QVQLEESGGCLVQAGGRIRLSCAASGSIFGYYAMGWYRQAPGKERELVADISYTGVSTYYADSVKGRFTISRDNAKNTVYLQMNSLKPEDTAVYYCAADWVYPDYSWYSYTDFDYWGQGTQVTVSS”: the “polyreactivity (PSR sort gate)” value was “low polyreactivity”.

“QVQLEESGGCLVQAGGSLRLSCAASGSIFWYNAMGRSRQAPGKERELVAAISYSGDRTYYADSVKGRFTISRDNAKNTGYLLMNSLKPEVTAVYYCAKAGTCFYNSWWEDSWGQGTQVTLSS”: the “polyreactivity (PSR sort gate)” value is listed as “low polyreactivity”.

With “QVQLEESGGGFVQAGGSLRLSCAASGFIFRRYAMGWYRQAPGKERELVAAISWRSGSTYYADSVKGRFTISRDNAKNTVYSPMKCLKPEDTAVYYCAAKDQATYQLYYWGQGTQVTVSS”, the “polyreactivity (PSR sort gate)” value is recorded as “high polyreactivity”.

Take “QVQLEESGGGFVQAGGSLRLSCAPSGTTFKSNAMGWYRQAPGKERELVAAINSGTSTYYADSVKGRFTISRDNAKNTVYLQMNSLKPEDTAVYYCSADGIWGEYYYSELGDYDYWGLGTQVTVSS”: the “polyreactivity (PSR sort gate)” value was “low polyreactivity”.

“QVQLEESGGGIVQAGGSLRLSCAASGITFYWYAMGWYRQAPGKERELVASITGNGGGTSYADSVKGRFTISRDNAKNTVYLQMNSLKPEDTAVYYCNTSVGVKDYVSWGQGTQVTLSS”: the “polyreactivity (PSR sort gate)” value is “low polyreactivity”.

With “QVQLEESGGGLDQAGGSLRLICAASGSIFPSYAMGWYRQAPGKERELVATIGRGGTTNYSDSVKGRFTISRDNAKITVYLLMNSLKPEDTAVYYCNADRIWRYKYGYDYWRQGTQVTVSS”, the “polyreactivity (PSR sort gate)” value is “high polyreactivity”.

Consider “QVQLEESGGGLDQAGGSLRLSCAASGRIFVFYAMGWYRQAPGKERELVAAITASSTRTYFADSVKGRFTISRDNAKNTVYLQMNSLKPEDTAVYYCAADRYYWGQGTQVTVSS”, for which the “polyreactivity (PSR sort gate)” value is “low polyreactivity”.
